In one assay the target is T1, Human FcRn (human, UniProt P55899 24-297; P61769 21-119).
T1 construct: Bought recombinant receptor; also called hFcRn
The assay is described as follows: SPR 25C, pH 6.0, FcRn on chip, steady state fit.

Assay [1] has as its target T2, Human CLEC12A-His (recombinant, K244 WT) (human, UniProt Q5QGZ9 65-265).
T2 construct: Made in house (Dragonfly Tx); also called hCLEC12A; hCLEC12A-His; not shown: His tag
T2 sequence: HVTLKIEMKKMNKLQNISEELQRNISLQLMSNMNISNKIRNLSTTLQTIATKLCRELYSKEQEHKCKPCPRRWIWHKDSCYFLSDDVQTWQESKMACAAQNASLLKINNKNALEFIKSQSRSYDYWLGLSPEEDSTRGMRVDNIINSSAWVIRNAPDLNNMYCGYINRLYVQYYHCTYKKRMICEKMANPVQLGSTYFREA
The assay is described as follows: SPR, two-state fit; after low pH hold. For orientation: Surface plasmon resonance follows binding to a sensor surface in real time, without labels.

For assay [2], the target named is T3, mFc-hNKG2D (recombinant mFc-tagged human NKG2D dimer) (human, UniProt P26718 73-216).
T3 construct: extracellular domain; Made in house; not shown: mouse Fc tag
T3 sequence (looked up): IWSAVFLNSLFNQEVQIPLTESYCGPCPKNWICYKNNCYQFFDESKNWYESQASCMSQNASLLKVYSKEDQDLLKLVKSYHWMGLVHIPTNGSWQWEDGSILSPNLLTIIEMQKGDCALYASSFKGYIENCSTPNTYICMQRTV
Kind of assay: SPR 37C, mFc-hNKG2D captured, steady state fit.

In patent publication US20220119534A1 (DRAGONFLY THERAPEUTICS, published 2022) one finds Kd data, which are given here for one molecule.

Several values for one entry are separate records, joined by “and”; a condition that tells them apart may be missing. Identical values can stand only once.

The term Kd denotes the equilibrium constant for the complex coming apart.

T1 sequence (P55899 24-297 limits assumed, chain 1 of 2): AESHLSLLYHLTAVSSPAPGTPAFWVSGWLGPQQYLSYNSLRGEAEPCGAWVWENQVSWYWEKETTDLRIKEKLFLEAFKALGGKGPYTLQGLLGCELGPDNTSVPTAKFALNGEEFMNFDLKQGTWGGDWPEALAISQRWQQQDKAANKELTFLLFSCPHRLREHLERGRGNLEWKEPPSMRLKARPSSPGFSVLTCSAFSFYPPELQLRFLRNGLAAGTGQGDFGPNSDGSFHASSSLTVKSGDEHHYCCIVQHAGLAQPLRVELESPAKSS
T1 sequence (P61769 21-119 limits assumed, chain 2 of 2): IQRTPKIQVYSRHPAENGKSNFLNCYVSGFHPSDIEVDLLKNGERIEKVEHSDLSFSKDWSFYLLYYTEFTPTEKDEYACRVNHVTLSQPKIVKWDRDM

B1: AB0089 TriNKET (bispecific antibody, human IgG1, kappa)
chain: QLQLQESGPGLVKPSETLSLTCTVSGFSLTNYGLHWIRQPPGKCLEWIGVIWVGGATDYNPSLKSRVTISVDTSKNQFSLKLSSVQAADTAVYYCAKGDYGDTLDYWGQGTLVTVSSGGGGSGGGGSGGGGSGGGGSDIQMTQSPSSLSASVGDRVTITCHASQNINFWLSWYQQKPGKAPKLLIYEASNLHTGVPSRFSGSGSGTDFTLTISSLQPEDFATYYCQQSHSYPLTFGCGTKLEIKGSDKTHTCPPCPAPELLGGPSVFLFPPKPKDTLMISRTPEVTCVVVDVSHEDPEVKFNWYVDGVEVHNAKTKPREEQYNSTYRVVSVLTVLHQDWLNGKEYKCKVSNKALPAPIEKTISKAKGQPREPRVYTLPPCRDELTKNQVSLTCLVKGFYPSDIAVEWESNGQPENNYKTTPPVLVSDGSFTLYSKLTVDKSRWQQGNVFSCSVMHEALHNHYTQKSLSLSPG
heavy: EVQLVESGGGLVKPGGSLRLSCAASGFTFSSYSMNWVRQAPGKGLEWVSSISSSSSYIYYADSVKGRFTISRDNAKNSLYLQMNSLRAEDTAVYYCARGAPIGAAAGWFDPWGQGTLVTVSSASTKGPSVFPLAPSSKSTSGGTAALGCLVKDYFPEPVTVSWNSGALTSGVHTFPAVLQSSGLYSLSSVVTVPSSSLGTQTYICNVNHKPSNTKVDKKVEPKSCDKTHTCPPCPAPELLGGPSVFLFPPKPKDTLMISRTPEVTCVVVDVSHEDPEVKFNWYVDGVEVHNAKTKPREEQYNSTYRVVSVLTVLHQDWLNGKEYKCKVSNKALPAPIEKTISKAKGQPREPQVCTLPPSRDELTENQVSLTCLVKGFYPSDIAVEWESNGQPENNYKTTPPVLDSDGSFFLYSWLTVDKSRWQQGNVFSCSVMHEALHNHYTQKSLSLSPG
light: DIQMTQSPSSVSASVGDRVTITCRASQGISSWLAWYQQKPGKAPKLLIYAASSLQSGVPSRFSGSGSGTDFTLTISSLQPEDFATYYCQQGVSFPRTFGGGTKVEIKRTVAAPSVFIFPPSDEQLKSGTASVVCLLNNFYPREAKVQWKVDNALQSGNSQESVTEQDSKDSTYSLSSTLTLSKADYEKHKVYACEVTHQGLSSPVTKSFNRGEC
notes: F3' format heterodimer of three chains; human IgG1 Fc with EW-RVT and Y349C/S354C mutations; also called AB0089 Lot AB0089-002; CLEC12A TriNKET AB0089
As for B1, the Kd with Human FcRn is 1100 nM; in assay [1], 0.7 nM; in assay [2], 873 nM and 894 nM and 885 nM.
